This note sets out measurements from PMC10715180.

Holding throughout (assay): EMSA
Common to all, as to conditions: […] (binding temperature not stated)
(In general: A gel shift assay detects complexes by their altered migration in electrophoresis.)

Data set [1] addresses PhoP K224A K224A (Mycobacterium abscessus subsp. massiliense CIP108297 (Mmas; subspecies name implied?)) (UniProt B1MHU9).
The target of data set [2] is PhoP (PhoPmas) WT, unphosphorylated (Mycobacterium abscessus subsp. massiliense CIP108297 (Mmas; subspecies name implied?)) (UniProt B1MHU9).
Data set [3] addresses PhoP D71N D71N (Mycobacterium abscessus subsp. massiliense CIP108297 (Mmas; subspecies name implied?)) (UniProt B1MHU9).

Regarding “AGGTAATCTTCCCCCCAAAATTTACGATGCGCTGGATCTTCACTGTGAGCTTCCTGTGAGTTACTCACAGCAGATTGTCAGCCAACCGCGCCAGGTCGCCCTACAGTTGAGCC (double strand) [phoP promoter probe WT]”, the results for the binding result in data set [1], in data set [2] and in data set [3] were “no binding”, “binds” and “binds more weakly”, respectively.
